Experimental data as given in publication PMC8920335, “A CGA/EGFR/GATA2 positive feedback circuit confers chemoresistance in gastric cancer” (The Journal of Clinical Investigation, 2022).

Molecular target: T1, recombinant ECD of EGFR (UniProt P00533 25-645)
T1 construct: Epidermal growth factor receptor, recombinant extracellular domain immobilised for SPR; Source, limits and tags may be told in the Supplemental Methods
Assay: SPR; BIAcore S200, room temperature; recombinant ECD of EGFR immobilised on a CM5 chip by amine coupling; purified rCGA injected at 30 μL/min for 60 seconds, dissociation 100 seconds; 1:1 Langmuir binding model
Settings: both partners purified

- Kd: 11.8 µM
B1: recombinant human CGA (glycoprotein hormone α polypeptide), 6×His tag removed (natural protein)
chain: not shown
notes: Glycoprotein hormones alpha chain (CGA), human; CGA ORF in a modified pHL-sec vector, secreted protein; engineered enterokinase site at the C-terminus before the 6×His tag; Made in mammalian cells; Residues of the enterokinase site may be left at the C-terminus after digestion; also called rCGA; α-subunit of glycoprotein hormones; not shown: His6, C-terminal, cleaved
